Test in all cases: pull-down
Assay [1] has as its target T1, His6-SET (full length) (human, UniProt Q01105 1-290).
Assay [2] addresses T2, cohesin subcomplex containing SA2 (residues 80–1060) and Scc1 (residues 281–420) (UniProt Q8N3U4 80-1060; O60216 281-420).
T2 sequence (looked up) 1: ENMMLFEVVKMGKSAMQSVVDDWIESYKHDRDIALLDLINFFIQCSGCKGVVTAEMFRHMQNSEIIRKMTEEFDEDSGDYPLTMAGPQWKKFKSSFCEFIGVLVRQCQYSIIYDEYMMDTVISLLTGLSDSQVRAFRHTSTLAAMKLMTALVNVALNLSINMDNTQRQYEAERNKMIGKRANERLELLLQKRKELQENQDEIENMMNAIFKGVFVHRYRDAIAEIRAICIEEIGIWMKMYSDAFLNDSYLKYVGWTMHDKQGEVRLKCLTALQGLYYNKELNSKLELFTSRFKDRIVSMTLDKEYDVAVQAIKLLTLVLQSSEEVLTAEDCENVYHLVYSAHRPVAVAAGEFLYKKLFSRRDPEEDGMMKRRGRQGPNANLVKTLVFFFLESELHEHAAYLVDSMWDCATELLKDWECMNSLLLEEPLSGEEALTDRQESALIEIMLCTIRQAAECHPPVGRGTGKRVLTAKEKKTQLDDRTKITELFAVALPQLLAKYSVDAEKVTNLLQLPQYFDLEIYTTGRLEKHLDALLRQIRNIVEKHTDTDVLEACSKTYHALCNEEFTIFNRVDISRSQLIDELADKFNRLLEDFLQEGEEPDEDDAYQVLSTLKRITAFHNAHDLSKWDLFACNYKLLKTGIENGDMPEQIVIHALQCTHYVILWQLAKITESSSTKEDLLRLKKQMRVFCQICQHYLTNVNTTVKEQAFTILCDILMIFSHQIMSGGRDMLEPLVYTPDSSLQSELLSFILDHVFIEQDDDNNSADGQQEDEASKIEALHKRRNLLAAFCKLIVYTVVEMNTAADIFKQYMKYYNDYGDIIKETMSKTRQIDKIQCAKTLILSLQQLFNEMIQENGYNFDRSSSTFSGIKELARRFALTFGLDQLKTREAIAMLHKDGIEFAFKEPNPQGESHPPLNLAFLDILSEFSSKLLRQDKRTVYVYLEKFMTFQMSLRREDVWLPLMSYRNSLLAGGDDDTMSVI
T2 sequence (looked up) 2: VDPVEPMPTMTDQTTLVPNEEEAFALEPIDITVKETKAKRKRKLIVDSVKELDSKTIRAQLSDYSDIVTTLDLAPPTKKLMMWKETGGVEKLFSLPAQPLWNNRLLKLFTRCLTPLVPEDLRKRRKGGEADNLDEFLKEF

For assay [3], the target named is T1, His6-SET (full length). This is another data set of the same source.
Assay [4] deals with T2, cohesin subcomplex containing SA2 …. The source holds these as a separate data set.

Read-outs that look alike come from different tables or passages of the source.

T1 sequence (Q01105 whole entry, the tested form may be a part): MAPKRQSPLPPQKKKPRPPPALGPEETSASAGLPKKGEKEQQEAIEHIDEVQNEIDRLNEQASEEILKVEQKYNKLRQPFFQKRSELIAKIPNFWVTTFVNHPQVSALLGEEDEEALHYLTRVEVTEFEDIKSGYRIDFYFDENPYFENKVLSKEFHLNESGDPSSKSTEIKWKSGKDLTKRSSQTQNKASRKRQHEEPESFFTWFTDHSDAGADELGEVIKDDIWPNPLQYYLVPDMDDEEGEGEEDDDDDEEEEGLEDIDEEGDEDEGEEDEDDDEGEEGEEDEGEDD

B1: GST-Sgo1 ΔCohesin (241–387 depleted of 313–353) (domain or fragment, human, UniProt Q5FBB7 241-387, looked up)
chain: VQHNACQWSKDQVNLSPKLIQPGTFTKTKEDILESKSEQTKSKQRDTQERKREEKRKANRRKSKRMSKYKENNDSNREENNESEVSLCESSGSGDDSDDLYLPTCK
Consider B1, for which, in assay [1], the binding result was “binds”.

B2: GST-Sgo1 ΔSET (241–387 depleted of 281–310) (domain or fragment, human, UniProt Q5FBB7 241-387, looked up)
chain: VQHNACQWSKDQVNLSPKLIQPGTFTKTKEDILESKSEQTENKSENKKTVPQKKMHKSVSSNDAYNFNLEEGVHLTPFRQKVSNDSNREENNESEVSLCESSGSGDDSDDLYLPTCK
Take B2: the binding result in assay [2] was “binds”.

B3: GST-Sgo1 fragment 115–353 (domain or fragment, human, UniProt Q5FBB7 115-353, looked up)
chain: QEICSSGMDPNSDDSSRNLFVKDLPQIPLEETELPGQGESFQIEDQIPTIPQDTLGVDFDSGEAKSTDNVLPRTVSVRSSLKKHCNSICQFDSLDDFETSHLAGKSFEFERVGFLDPLVNMHIPENVQHNACQWSKDQVNLSPKLIQPGTFTKTKEDILESKSEQTKSKQRDTQERKREEKRKANRRKSKRMSKYKENKSENKKTVPQKKMHKSVSSNDAYNFNLEEGVHLTPFRQKVS
Take B3: the binding result in assay [1] is recorded as “binds”.

B4: GST-Sgo1 fragment 280–353 (domain or fragment, human, UniProt Q5FBB7 280-353, looked up)
chain: TKSKQRDTQERKREEKRKANRRKSKRMSKYKENKSENKKTVPQKKMHKSVSSNDAYNFNLEEGVHLTPFRQKVS
With B4, the binding result in assay [1] is “binds”.

B5: GST-Sgo1 fragment 200–353 (domain or fragment, human, UniProt Q5FBB7 200-353, looked up)
chain: NSICQFDSLDDFETSHLAGKSFEFERVGFLDPLVNMHIPENVQHNACQWSKDQVNLSPKLIQPGTFTKTKEDILESKSEQTKSKQRDTQERKREEKRKANRRKSKRMSKYKENKSENKKTVPQKKMHKSVSSNDAYNFNLEEGVHLTPFRQKVS
As for B5, the binding result in assay [1] is “binds”.

B6: GST-Sgo1 WT (241–387) (domain or fragment, human, UniProt Q5FBB7 241-387, looked up)
chain: VQHNACQWSKDQVNLSPKLIQPGTFTKTKEDILESKSEQTKSKQRDTQERKREEKRKANRRKSKRMSKYKENKSENKKTVPQKKMHKSVSSNDAYNFNLEEGVHLTPFRQKVSNDSNREENNESEVSLCESSGSGDDSDDLYLPTCK
As to B6, the binding result in assay [1] and in assay [2] was “binds” in each case.

B7: GST-Sgo1 (241–387), Cdk1-phosphorylated (domain or fragment, human, UniProt Q5FBB7 241-387, looked up)
chain: B6 chain
modifications: phospho-Thr346 (Cdk1/cyclin B1; detected with antibody against Sgo1 pT346; how much was phosphorylated could not be measured)
With B7, the binding result in assay [3] and in assay [4] was “binds” throughout.

The values are drawn from publication PMC6683731 (The Journal of Cell Biology, 2019).
